Target: protein A (UniProt P38507)
Assay: SPR, BIACORE 3000, protein A immobilised on CM5 chip, 4.4 ug/ml BSA in flow at 20 ul/min; nonlinear regression with Rmax fixed at 880 RU

“BSA (molecular weight: 66,200) (from UniProt P02769 25-607) (other; other documents disagree on this pair)” gave a koff of 0.11 s⁻¹ and a kon of 880000 M⁻¹ s⁻¹.
